Our source for the kcat/KM values is patent US20100159032A1.

The target of test [1] is Gln^3-Aβ(3-11)a, Gln^3-amyloid β-peptide(3-11)a (Artificial Sequence).
In test [2] the target is Gln^3-Aβ(3-21)a, Gln^3-amyloid β-peptide(3-21)a (Artificial Sequence).
The target in test [3] is Gln^3-Aβ(3-40), Gln^3-amyloid β-peptide(3-40) (Artificial Sequence).
Test [4] has as its target Glucagon(3-29) (Homo sapiens (Human)) (UniProt P01275).

“recombinant human QC (glutaminyl cyclase) (from UniProt Q16769) (enzyme)”: the kcat/KM (usually the turnover number divided by the Michaelis constant) came out at 267000 M⁻¹ s⁻¹ in test [1], 383000 M⁻¹ s⁻¹ in test [2], 449000 M⁻¹ s⁻¹ in test [3] and 526000 M⁻¹ s⁻¹ in test [4].
